The labels stand for the following.
B1: Hu3A5 (V11) antibody (antibody, V domains shown)
VH: EVQLVQSGSELKKPGASVKVSCKASGYTFTSYWMHWMRQAPGQGLEWIGVIDPSDSYTSYNQGFTGRFVLSVDTSVSTAYLQISSLKAEDTAVYYCARGGKRAMDYWGQGTTVTVSS
VL: DVVMTQSPDSLAVSLGERATINCKSSQSLVHSNGNTYLHWYQQKPGQPPKLLIYKVSNRFSGVPDRFSGSGSGTDFTLTISSLQAEDVAVYFCSQSTHVPFTFGGGTKLEIK
notes: Humanized 3A5
B2: Hu3A5 (V12) antibody (antibody, V domains shown)
VH: B1 VH
VL: B1 VL with F92Y
notes: Humanized 3A5
B3: Hu3A5 (V16) antibody (antibody, V domains shown)
VH: B1 VH with E1Q, H35N, M37V, I48M, L70F
VL: B1 VL with F92Y
notes: Humanized 3A5
B4: Hu3A5 (V15) antibody (antibody, V domains shown)
VH: B1 VH with E1Q, H35N, M37V, I48M, L70F
VL: B1 VL
notes: Humanized 3A5
B5: Hu3A5 (V1) antibody (antibody, V domains shown)
VH: EVQLVQSGAEVKKPGASVKVSCKASGYTFTSYWMHWMRQAPGQGLEWIGVIDPSDSYTSYNQKFQGRVTLTVDTSTSTAYMELSSLRSEDTAVYYCARGGKRAMDYWGQGTTVTVSS
VL: DVVMTQSPLSLPVTLGQPASISCRSSQSLVHSNGNTYLHWFQQRPGQSPRLLIYKVSNRFSGVPDRFSGSGSGTDFTLKISRVEAEDVGVYFCSQSTHVPFTFGGGTKLEIK
notes: Humanized 3A5
B6: Hu3A5 (V10) antibody (antibody, V domains shown)
VH: B1 VH
VL: B5 VL with F92Y
B7: Hu3A5 (V3) antibody (antibody, V domains shown)
VH: B5 VH
VL: B1 VL
notes: Humanized 3A5
B8: Hu3A5 (V9) antibody (antibody, V domains shown)
VH: B1 VH
VL: B5 VL
notes: Humanized 3A5
B9: Hu3A5 (V4) antibody (antibody, V domains shown)
VH: B5 VH
VL: B1 VL with F92Y
notes: Humanized 3A5
B10: Hu3A5 (V8) antibody (antibody, V domains shown)
VH: B5 VH with E1Q, M37V, I48M, L70M
VL: B1 VL with F92Y
notes: Humanized 3A5
B11: Hu3A5 (V2) antibody (antibody, V domains shown)
VH: B5 VH
VL: B5 VL with F92Y
notes: Humanized 3A5
B12: Hu3A5 (V7) antibody (antibody, V domains shown)
VH: B5 VH with E1Q, M37V, I48M, L70M
VL: B1 VL
notes: Humanized 3A5
B13: Hu3A5 (V5) antibody (antibody, V domains shown)
VH: B5 VH with E1Q, M37V, I48M, L70M
VL: B5 VL
notes: Humanized 3A5
B14: Hu3A5 (V13) antibody (antibody, V domains shown)
VH: B1 VH with E1Q, H35N, M37V, I48M, L70F
VL: B5 VL
notes: Humanized 3A5
B15: Hu3A5 (V6) antibody (antibody, V domains shown)
VH: B5 VH with E1Q, M37V, I48M, L70M
VL: B5 VL with F92Y
notes: Humanized 3A5
B16: Hu3A5 (V14) antibody (antibody, V domains shown)
VH: B1 VH with E1Q, H35N, M37V, I48M, L70F
VL: B5 VL with F92Y
notes: Humanized 3A5

Where a chain is given by its changes, count along the chain named.

CD47 protein (Acrobiosystems, cat#CD7-HA2E9), sequence (Q08722 19-139 limits assumed): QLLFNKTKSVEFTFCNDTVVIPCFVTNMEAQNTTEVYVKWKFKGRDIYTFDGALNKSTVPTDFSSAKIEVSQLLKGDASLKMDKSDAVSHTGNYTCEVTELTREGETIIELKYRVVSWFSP
T1 sequence (Q08722 19-323 limits assumed): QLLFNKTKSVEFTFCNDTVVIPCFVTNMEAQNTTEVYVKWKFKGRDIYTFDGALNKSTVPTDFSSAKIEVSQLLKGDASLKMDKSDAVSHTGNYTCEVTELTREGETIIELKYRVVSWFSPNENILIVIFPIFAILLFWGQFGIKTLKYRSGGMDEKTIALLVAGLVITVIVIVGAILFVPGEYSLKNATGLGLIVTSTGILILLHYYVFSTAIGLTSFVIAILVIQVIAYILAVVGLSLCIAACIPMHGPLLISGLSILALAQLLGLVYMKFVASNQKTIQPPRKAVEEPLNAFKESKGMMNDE

One experiment has as its target CD47 protein (Acrobiosystems, cat#CD7-HA2E9) (UniProt Q08722). Description: ELISA, CD47 protein coated 100 ng/well, 0.8 µg antibody per well. Background: In an ELISA, binding on a coated surface is turned into a signal by an enzyme label.
In turn, B1 yielded an OD450 measurements of 2.81 OD450.
Take B2: the OD450 measurements was found to be 2.85 OD450.
On the same count and under the same terms, the figure for B3 is 0.106 OD450.
Turning to B4, the OD450 measurements was 0.111 OD450.
Still for that read-out and setting: the figure for B5 is 2.58 OD450; for B6 it is 2.81 OD450.
The same measure, in the same setting: the figure for B7 is 2.54 OD450.
As for B8, the OD450 measurements was found to be 2.65 OD450.
B9: the OD450 measurements turned out to be 2.74 OD450.
Same read-out and setting: the figure for B10 is 2.45 OD450; for B11 it is 2.69 OD450; for B12 it is 2.67 OD450.
Still for that read-out and setting: the figure for B13 is 2.57 OD450.
Same read-out and setting: the result for B14 reads 0.0966 OD450; that for B15, 2.62 OD450.
Molecule B16 displayed an OD450 measurements of 0.147 OD450.

For another experiment, the target named is CD47 on the CD47-overexpressing breast cancer cell line MCF-7 (UniProt Q08722). Description: flow cytometry on MCF-7 cells, secondary antibody alone (background control).
CD47 on the CD47-overexpressing breast cancer cell line MCF-7 (UniProt Q08722), sequence (Q08722 19-323 limits assumed): as above
In the case of “PE-conjugated goat anti-mouse IgG antibody (Biolegend Inc., cat# 405307)”, the Mean (fluorescence) is 80 and the Median (fluorescence) was found to be 73.9.

Another experiment has as its target T1, CD47 on the CD47-overexpressing breast cancer cell line MCF-7 (UniProt Q08722 19-323, limits assumed).
T1 construct: whole, on cells; Endogenous CD47 on MCF-7 cells; The positive control used on these cells is an anti-human CD47 antibody; also called CD47 overexpressing tumor cells (MCF-7); MCF-7 cells expressing CD47
Description: flow cytometry on MCF-7 cells, 1 µg antibody. (In flow cytometry, cells or beads pass a laser one at a time.)
Regarding B1, the binding result is “binds”.
In the case of B2, the binding result is on record as “binds”.
As for B3, the binding result is given as “binds”.
Same read-out and setting: the result for B4 reads “binds”; that for B5, “binds”.
Take B7: the binding result is on record as “binds”.
On the same count and under the same terms, the entry for B8 is “binds”; for B9 it is “binds”; for B10 it is “binds”.
On the same count and under the same terms, the entry for B11 is “binds”.
Still for that read-out and setting: the result for B12 reads “binds”; that for B13, “binds”.
As for B14, the binding result is recorded as “binds”.
On the same count and under the same terms, the entry for B15 is “binds”.
In the case of B16, the binding result is given as “binds”.

These data come from patent EP4365197A1 (Innobation Bio Co., Ltd., dated 2024).
